In paper PMC4666388:

Target: GST-HP1α (full-length human heterochromatin protein 1 α with N-terminal GST) (human) (UniProt P45973)
Assay: pull-down; GST-HP1 anchored on GSH-Sepharose (80 pmol), 1.2 μg native oligo-nucleosomes from HeLa; absence of MgCl2; 50 mM NaCl, 20 mM Tris-HCl pH 7.4, room temperature 30 min; H3K9me3 and H4 detected by western blot

Sequence of UniProt P45973 (P45973 whole entry): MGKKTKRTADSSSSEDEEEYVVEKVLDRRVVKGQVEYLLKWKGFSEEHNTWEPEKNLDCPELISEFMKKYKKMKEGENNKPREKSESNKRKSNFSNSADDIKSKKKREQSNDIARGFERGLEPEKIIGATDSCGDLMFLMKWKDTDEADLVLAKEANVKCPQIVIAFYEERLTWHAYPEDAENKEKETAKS

## native oligo-nucleosomes prepared from HeLa cell nuclei (H3K9me3-nucleosomes detected) (complex)
  percent of input bound: 18 % of input
